This note sets out measurements from patent publication US20100104568A1 (published 2010).

Experiment [1] deals with human RANK-L, full length, membrane-bound, expressed on HEK293T cells (human) (UniProt O14788). The experiment is described as follows: FACS, HEK293T with human RANK-L, 16 pM Nanobody. On the technique in general: Flow cytometry measures light scatter and fluorescence of single cells or particles in a stream.
Experiment [2] shares this target. As to the kind of experiment: FACS, HEK293T with human RANK-L, 80 pM Nanobody.
Experiment [3] shares this target. As to the kind of experiment: FACS, HEK293T with human RANK-L, 2000 pM Nanobody.
Experiment [4] addresses cynomolgus RANK-L, full length, membrane-bound, expressed on HEK293T cells (cynomolgus monkey). As to the kind of experiment: FACS, HEK293T with cynomolgus RANK-L, 2000 pM Nanobody.
The target in experiment [5] is human RANK-L, full length, membrane-bound, expressed on HEK293T cells (human) (UniProt O14788). As to the kind of experiment: FACS, HEK293T with human RANK-L, 400 pM Nanobody.
The target is the same in experiment [6]. As to the kind of experiment: FACS, HEK293T with human RANK-L, 3.2 pM Nanobody.
Experiment [7] deals with cynomolgus RANK-L, full length, membrane-bound, expressed on HEK293T cells (cynomolgus monkey). The experiment is described as follows: FACS, HEK293T with cynomolgus RANK-L, 400 pM Nanobody.
Experiment [8] concerns the target T1, human RANK-L (human, UniProt O14788 140-317).
T1 chain: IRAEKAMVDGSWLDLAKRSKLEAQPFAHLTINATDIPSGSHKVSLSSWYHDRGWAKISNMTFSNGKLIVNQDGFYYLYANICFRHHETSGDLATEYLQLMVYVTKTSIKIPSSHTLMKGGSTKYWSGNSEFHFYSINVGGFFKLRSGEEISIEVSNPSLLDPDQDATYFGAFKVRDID
As to the kind of experiment: competition ELISA. Background: In an ELISA, binding on a coated surface is turned into a signal by an enzyme label.

Experiment [9] addresses T1, human RANK-L. The experiment is described as follows: competition ELISA.
For experiment [10], the target named is T1, human RANK-L. As to the kind of experiment: cell-based or functional assay.

For the molecule irrelevant Nanobody (VHH), the PE mean fluorescence amounted to 77 in [1]; 82 in experiment [2]; 87 in [3]; 149 in experiment [4]; 90 in experiment [5]; 84 in [6]. Moreover, in [7], the PE mean fluorescence came out at 140.

B1: RANKL003p (VHH)
chain: EVQLVESGGGLVQPGGSLRLSCAASGRTFSRSAMGWFRQAPGKGREFVGFITGSGGTTYYADSVKGRFTISRDNAQNPVYLQMNSLRPEDTAVYYCAVYRRTYISSTYSESSEYDYWGQGTLVTVSSGGGGSGGGGSGGGGSGGGGSGGGGSGGGGSEVQLVESGGGLVQPGGSLRLSCAASGRTFSRSAMGWFRQAPGKGREFVGFITGSGGTTYYADSVKGRFTISRDNAQNPVYLQMNSLRPEDTAVYYCAVYRRTYISSTYSESSEYDYWGQGTLVTVSSGGGC
modifications: PEGylated with maleimide PEG, average MW 40,000; residue not stated (the entry ends in GGGC)
In turn, B1 came in with an EC50 in [8] of 40.9 pM.

B2: RANKL001p (VHH)
chain: EVQLVESGGGLVQPGGSLRLSCAASGFTFSSYPMGWFRQAPGKGREFVSSITGSGGSTYYADSVKGRFTISRDNAKNTLYLQMNSLRPEDTAVYYCAAYIRPDTYLSRDYRKYDYWGQGTLVTVSSGGGGSGGGSEVQLVESGGGLVQPGGSLRLSCAASGFTFSSYPMGWFRQAPGKGREFVSSITGSGGSTYYADSVKGRFTISRDNAKNTLYLQMNSLRPEDTAVYYCAAYIRPDTYLSRDYRKYDYWGQGTLVTVSSGGGC
modifications: PEGylated with maleimide PEG, average MW 40,000; residue not stated (the entry ends in GGGC)
The molecule B2 came in with an IC50 in experiment [9] of 46.5 pM.

B3: osteoprotegerin (receptor, UniProt O00300 22-401, looked up)
chain: ETFPPKYLHYDEETSHQLLCDKCPPGTYLKQHCTAKWKTVCAPCPDHYYTDSWHTSDECLYCSPVCKELQYVKQECNRTHNRVCECKEGRYLEIEFCLKHRSCPPGFGVVQAGTPERNTVCKRCPDGFFSNETSSKAPCRKHTNCSVFGLLLTQKGNATHDNICSGNSESTQKCGIDVTLCEEAFFRFAVPTKFTPNWLSVLVDNLPGTKVNAESVERIKRQHSSQEQTFQLLKLWKHQNKDQDIVKKIIQDIDLCENSVQRHIGHANLTFEQLRSLMESLPGKKVGAEDIEKTIKACKPSDQILKLLSLWRIKNGDQDTLKGLMHALKHSKTYHFPKTVTQSLKKTIRFLHSFTMYKLYQKLFLEMIGNQVQSVKISCL
For the molecule B3, the IC50, RANK-L induced NF-kappaB reporter (luciferase) in HEK293T in experiment [10] was 6030 pM.

As usually defined, the EC50 is the concentration that produces a half-maximal response. High values mean a need for much substance, low ones an effect from little substance. The IC50 is the midpoint of a concentration-inhibition curve. High values mean lower potency, low ones higher potency.
